{"source": "paper doi:10.1101/062877", "assay_in_all_cases": "single-molecule TIRF microscopy of live cells", "key": {"[1]": {"biological_target": "DNA-CAR (DNA-based chimeric antigen receptor; HA-tagged non-fluorescent version, pHR-DNA-CAR-IRES-puro) (UniProt P42081)"}, "[2]": {"biological_target": "DNA-CAR (DNA-based chimeric antigen receptor; HA-tagged non-fluorescent version, pHR-DNA-CAR-IRES-puro) (UniProt P42081)", "remark": "listed apart in the source"}, "[3]": {"biological_target": "DNA-CAR (DNA-based chimeric antigen receptor; HA-tagged non-fluorescent version, pHR-DNA-CAR-IRES-puro) (UniProt P42081)", "remark": "listed apart in the source"}}, "note": "Read-outs that look alike come from different tables or passages of the source.", "data": [{"substance": "ZAP70-GFP (from UniProt P43403 1-619) (enzyme)", "values": [{"measurement": "percent of receptor-ligand clusters of 3 or more ligands that recruit ZAP70-GFP", "setting": "[1]", "value": 53, "unit": "%"}, {"measurement": "percent of single bound ligands that recruit ZAP70-GFP", "setting": "[1]", "value": 2, "unit": "%"}, {"measurement": "duration of ZAP70-GFP recruitment at a single ligated receptor", "setting": "[2]", "value": "< 20", "unit": "s"}, {"measurement": "half-life of the bound time on a single ligated receptor", "setting": "[2]", "value": 10, "unit": "s"}, {"measurement": "percent of receptor-ligand clusters of 3 or more ligands that recruit ZAP70-GFP", "setting": "[2]", "value": 83, "unit": "%"}, {"measurement": "percent of single bound ligand-receptors that recruit ZAP70-GFP", "setting": "[2]", "value": 6.3, "unit": "%"}, {"measurement": "percent of single bound receptors that recruit ZAP70-GFP", "setting": "[2]", "value": 20, "unit": "%"}, {"measurement": "percent of single bound ligand-receptors that recruit ZAP70-GFP", "setting": "[3]", "value": 2.2, "unit": "%"}]}]}
